This series deals with O=NO. In words: purified protein. To be noted: 50 mM potassium phosphate pH 7.0, 4 °C, anaerobic, nitrite up to 50 mM.

Here are results for 1 substance from PMC4104443.

Turning to “AxNiR (AxCuNiR) (Achromobacter xylosoxidans; F330C)”, the Km amounted to 1200 ± 100 µM, the catalytic constant (kcat) is 310 s⁻¹ and the kcat/Km is 260000 M⁻¹ s⁻¹.
